Experimental findings from US20130052128A1 (University of California, published 2013) are described below.

Where a chain is given by its changes, count along the chain named.

Experiment [1] concerns the target T1, Membrane-bound human uPAR on cells (human, UniProt Q03405 23-305).
T1 construct: whole, on cells; Also used for endogenous uPAR in H1299 lysates (co-immunoprecipitation) and in tumor xenografts and sections; also called cell surface uPAR; CD87
Kind of experiment: in vivo imaging, 2 nmol labelled IgG, 48 hours after injection.

Experiment [2] has as its target T2, Human soluble uPAR (residues 1-277) (human, UniProt Q03405 23-299).
T2 construct: also called soluble human uPAR
Description: equilibrium SPR (Biacore 1000), IgG immobilized on a CM5 chip, soluble uPAR as analyte, one site binding model.

In experiment [3] the target is T2, Human soluble uPAR (residues 1-277). Kind of experiment: equilibrium SPR (Biacore), IgG immobilized, soluble uPAR as analyte (FIG. 4).

T2 sequence (Q03405 23-299): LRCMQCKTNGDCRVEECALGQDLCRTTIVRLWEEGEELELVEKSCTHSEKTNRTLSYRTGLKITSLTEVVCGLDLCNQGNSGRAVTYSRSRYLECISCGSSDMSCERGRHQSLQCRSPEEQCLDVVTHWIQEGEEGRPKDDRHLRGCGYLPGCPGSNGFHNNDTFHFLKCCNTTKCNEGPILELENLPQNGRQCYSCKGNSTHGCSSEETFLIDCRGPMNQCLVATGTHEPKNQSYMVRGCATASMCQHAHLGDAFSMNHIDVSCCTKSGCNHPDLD
T1 sequence (Q03405 23-305): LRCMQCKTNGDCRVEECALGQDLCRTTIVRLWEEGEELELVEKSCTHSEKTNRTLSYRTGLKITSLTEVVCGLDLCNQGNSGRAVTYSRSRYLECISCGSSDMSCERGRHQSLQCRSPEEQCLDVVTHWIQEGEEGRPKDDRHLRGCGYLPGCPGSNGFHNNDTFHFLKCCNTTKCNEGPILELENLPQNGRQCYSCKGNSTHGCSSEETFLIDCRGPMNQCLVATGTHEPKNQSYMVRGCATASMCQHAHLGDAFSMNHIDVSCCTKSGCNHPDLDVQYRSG

B1: 3C6 IgG (antibody, V domains shown)
VH: QVQLQQWGAGLLKPSETLSLTCAVYGGSFSGYYWSWIRQPPGKGLEWIGEINHSGSTNYNPSLKSRVTISVDTSKNQFSLKLSSVTAADTAVYYCARGRRFGDFDYWGQGTLVTVSS
VL: QPVLTQPPSVSVAPGKTARITCGGNNIGSKSVHWYQQKPGQAPVLVVYDDSDRPPGIPERFSGSNSGNTATLTISRVEAGDEADYYCQVWDSSSDHSPFGTGTKVTVLG
notes: not shown: IgG constant region; the making of 3C6 IgG is not described
On to B1, for which, in experiment [1], the binding result is reported as “binds”.

B2: 2E9 IgG (antibody, V domains shown)
VH: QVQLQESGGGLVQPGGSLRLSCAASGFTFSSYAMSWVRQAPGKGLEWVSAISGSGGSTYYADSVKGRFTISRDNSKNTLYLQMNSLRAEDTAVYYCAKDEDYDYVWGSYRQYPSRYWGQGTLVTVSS
VL: QSVLTQPPSVSVSPGQTASITCSGDNLGYKYASWYQQKPGQSPVLIIYQDKKRPSGIPERFSGSNSGNTATLTISGTQAMDEADYYCQAWDSSTSVVFGGGTKLTVLG
notes: also called 2E9 IgG1; not shown: human IgG1 constant region of vector pTT5-SP-H1
For the molecule B2, the Kd in experiment [2] was found to be 9.2 nM.

B3: 1A8 IgG (antibody, V domains shown)
VH: QVQLQQSGPGLVKPSQTLSLTCAISGDSVSSNSAAWNWIRQSPSRGLEWLGRTYYRSKWYNDYAVSVKSRITINPDTSKNQFSLQLNSVTPEDTAVYYCTRDPGGALDDSFDIWGQGTMVTVSS
VL: DVVMTQSPASLSVSVGDRVTLTCQASQVINNHLNWYQQQPGKAPKLLVYDASNLETGVPSRFSGSGSGTDFTFTISGLQPEDIATYYCQQSDNLPLTFGGGTKLEIKR
notes: also called 1A8 IgG1; not shown: human IgG1 constant region of vector pTT5-SP-H1
In turn, B3 showed a Kd in experiment [2] of 23.8 nM.

B4: 2G10 IgG (antibody, V domains shown)
VH: B3 VH with T72I, T100A, A106P
VL: DVVMTQSPLSLPVTPGEPASISCRSSQSLLRSNGYNYLDWYLQKPGQSPQLLIYLGSIRASGVPDRFSGSGSGTDFTLRISRVEAEDVGVYYCMQALQTPFTFGQGTKLEIKR
modifications: Alexa Fluor 680 (about 15 dyes per IgG) or DOTA-111In in the imaging experiments. It is unlabelled in SPR and flow cytometry.
notes: Used with an Alexa Fluor 680 or 111In-DOTA label in the in vivo imaging; also called 2G10 IgG1; DOTA-2G10 IgG
On to B4, for which the Kd in experiment [3] is roughly 40.5 nM; in experiment [2], 40.5 nM.
